Publication PMC11441495 (Proceedings of the National Academy of Sciences of the …, 2024)

B1: human β-catenin (natural protein, UniProt P35222 1-781, looked up)
chain: MATQADLMELDMAMEPDRKAAVSHWQQQSYLDSGIHSGATTTAPSLSGKGNPEEEDVDTSQVLYEWEQGFSQSFTQEQVADIDGQYAMTRAQRVRAAMFPETLDEGMQIPSTQFDAAHPTNVQRLAEPSQMLKHAVVNLINYQDDAELATRAIPELTKLLNDEDQVVVNKAAVMVHQLSKKEASRHAIMRSPQMVSAIVRTMQNTNDVETARCTAGTLHNLSHHREGLLAIFKSGGIPALVKMLGSPVDSVLFYAITTLHNLLLHQEGAKMAVRLAGGLQKMVALLNKTNVKFLAITTDCLQILAYGNQESKLIILASGGPQALVNIMRTYTYEKLLWTTSRVLKVLSVCSSNKPAIVEAGGMQALGLHLTDPSQRLVQNCLWTLRNLSDAATKQEGMEGLLGTLVQLLGSDDINVVTCAAGILSNLTCNNYKNKMMVCQVGGIEALVRTVLRAGDREDITEPAICALRHLTSRHQEAEMAQNAVRLHYGLPVVVKLLHPPSHWPLIKATVGLIRNLALCPANHAPLREQGAIPRLVQLLVRAHQDTQRRTSMGGTQQQFVEGVRMEEIVEGCTGALHILARDVHNRIVIRGLNTIPLFVQLLYSPIENIQRVAAGVLCELAQDKEAAEAIEAEGATAPLTELLHSRNEGVATYAAAVLFRMSEDKPQDYKKRLSVELTSSLFRTEPMAWNETADLGLDIGAQGEPLGYRQDDPSYRSFHSGGYGQDALGMDPMMEHEMGGHHPGADYPVDGLPDLGHAQDLMDGLPPGDSNQLAWFDTDL
B2: full-length human αE-catenin (natural protein, UniProt P35221 1-906, looked up)
chain: MTAVHAGNINFKWDPKSLEIRTLAVERLLEPLVTQVTTLVNTNSKGPSNKKRGRSKKAHVLAASVEQATENFLEKGDKIAKESQFLKEELVAAVEDVRKQGDLMKAAAGEFADDPCSSVKRGNMVRAARALLSAVTRLLILADMADVYKLLVQLKVVEDGILKLRNAGNEQDLGIQYKALKPEVDKLNIMAAKRQQELKDVGHRDQMAAARGILQKNVPILYTASQACLQHPDVAAYKANRDLIYKQLQQAVTGISNAAQATASDDASQHQGGGGGELAYALNNFDKQIIVDPLSFSEERFRPSLEERLESIISGAALMADSSCTRDDRRERIVAECNAVRQALQDLLSEYMGNAGRKERSDALNSAIDKMTKKTRDLRRQLRKAVMDHVSDSFLETNVPLLVLIEAAKNGNEKEVKEYAQVFREHANKLIEVANLACSISNNEEGVKLVRMSASQLEALCPQVINAALALAAKPQSKLAQENMDLFKEQWEKQVRVLTDAVDDITSIDDFLAVSENHILEDVNKCVIALQEKDVDGLDRTAGAIRGRAARVIHVVTSEMDNYEPGVYTEKVLEATKLLSNTVMPRFTEQVEAAVEALSSDPAQPMDENEFIDASRLVYDGIRDIRKAVLMIRTPEELDDSDFETEDFDVRSRTSVQTEDDQLIAGQSARAIMAQLPQEQKAKIAEQVASFQEEKSKLDAEVSKWDDSGNDIIVLAKQMCMIMMEMTDFTRGKGPLKNTSDVISAAKKIAEAGSRMDKLGRTIADHCPDSACKQDLLAYLQRIALYCHQLNICSKVKAEVQNLGGELVVSGVDSAMSLIQAAKNLMNAVVQTVKASYVASTKYQKSQGMASLNLPAVSWKMKAPEKKPLVKREKQDETQTKIKRASQKKHVNPVQALSEFKAMDSI
B3: full-length human vinculin autoinhibition-disruption mutant VK3E (natural protein, UniProt P18206-2 1-1066, looked up)
chain: MPVFHTRTIESILEPVAQQISHLVIMHEEGEVDGKAIPDLTAPVAAVQAAVSNLVRVGKETVQTTEDQILKRDMPPAFIKVENACTKLVQAAQMLQSDPYSVPARDYLIDGSRGILSGTSDLLLTFDEAEVRKIIRVCKGILEYLTVAEVVETMEDLVTYTKNLGPGMTKMAKMIDERQQELTHQEHRVMLVNSMNTVKELLPVLISAMKIFVTTKNSKNQGIEEALKNRNFTVEKMSAEINEIIRVLQLTSWDEDAWASKDTEAMKRALASIDSKLNQAKGWLRDPSASPGDAGEQAIRQILDEAGKVGELCAGKERREILGTCKMLGQMTDQVADLRARGQGSSPVAMQKAQQVSQGLDVLTAKVENAARKLEAMTNSKQSIAKKIDAAQNWLADPNGGPEGEEQIRGALAEARKIAELCDDPKERDDILRSLGEISALTSKLADLRRQGKGDSPEARALAKQVATALQNLQTKTNRAVANSRPAKAAVHLEGKIEQAQRWIDNPTVDDRGVGQAAIRGLVAEGHRLANVMMGPYRQDLLAKCDRVDQLTAQLADLAARGEGESPQARALASQLQDSLKDLKARMQEAMTQEVSDVFSDTTTPIKLLAVAATAPPDAPNREEVFDERAANFENHSGKLGATAEKAAAVGTANKSTVEGIQASVKTARELTPQVVSAARILLRNPGNQAAYEHFETMKNQWIDNVEKMTGLVDEAIDTKSLLDASEEAIKKDLDKCKVAMANIQPQMLVAGATSIARRANRILLVAKREVENSEDPKFREAVKAASDELSKTISPMVMDAKAVAGNISDPGLQKSFLDSGYRILGAVAKVREAFQPQEPDFPPPPPDLEQLRLTDELAPPKPPLPEGEVPPPRPPPPEEKDEEFPEQKAGEVINQPMMMAARQLHDEARKWSSKGNDIIAAAKRMALLMAEMSRLVRGGSGTEEALIQCAKDIAKASDEVTRLAKEVAKQCTDKRIRTNLLQVCERIPTISTQLEILSTVKATMLGRTNISDEESEQATEMLVHNAQNLMQSVKETVREAEAASIKIRTDAGFTLRWVRKTPWYQ

Key:
Experiment in all cases: reconstitution of the complex from purified proteins
[1] = molecular target: B2
[2] = molecular target: B3
[3] = molecular target: α-catenin–β-catenin–E-cadherin cytoplasmic tail complex (ABE complex) (human, UniProt P35221 1-906; P35222 1-781; P12830 731-882)
[4] = molecular target: B1

Chain of α-catenin–β-catenin–E-cadherin cytoplasmic tail complex (ABE complex) (P12830 731-882, one chain of several): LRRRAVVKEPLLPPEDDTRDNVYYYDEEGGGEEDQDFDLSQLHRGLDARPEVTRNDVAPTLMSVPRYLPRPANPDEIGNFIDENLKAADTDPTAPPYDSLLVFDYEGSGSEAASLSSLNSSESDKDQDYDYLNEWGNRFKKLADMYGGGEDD

B1
binding result [1]: binds

B2
binding result [2]: binds

B3
binding result [3]: binds

B4: cytoplasmic domain of human E-cadherin (EcadCT, residues 731 to 882) (domain or fragment)
chain: not shown
binding result [4]: binds
